Assay results from patent publication US20190185564A1 (AGENCY FOR SCIENCE TECHNOLOGY AND RESEARCH, published 2019).
Where a chain is given by its changes, count along the chain named.

B1: anti-TIM-3 antibody clone A11 (antibody, V domains shown)
VH: QVQLQQWGAGLLKPSETLSLTCAVYGGSFSGYYWSWIRQPPGKGLEWIGEINHSGSTNYNPSLKSRVTISVDTSKNQFSLKLSSVTAADTAVYYCARGYVAGFDYWGQGTLVTVSS
VL: QSVVTQPPSVSAAPGQKVTISCSGSSSNIGNNYVSWYQQLPGTAPKLLIYGNNWRPSGIPDRFSGSKSGTSATLAISGLQTGDEADYYCETWDSSLSAGVFGGGTKLTVL
notes: Screened as Fab, and SPR was recorded for 'each candidate Fab'
B2: anti-TIM-3 antibody clone B10 (antibody, V domains shown)
VH: QVQLQESGPGLVKASETLSLTCTVSGGSIGSSDYYWGWIRQPPGKGLEWIGSIYYSGSTYYNPSLKSRVTMSVDTPNNQFSLKLSSVTAADTAVYYCARGEHRGEFDYWGQGTLVTVSS
VL: EIVLTQSPATLSFSPGERATLSCRASQSVGSYLAWYQQRPGQAPRPLIYDATNRATGIPTRFSGSGSGTDFTLTISSLEPEDFATYYCQHRRTFGRGTKLEIK
notes: as for B1
B3: anti-TIM-3 antibody clone A3 (antibody, V domains shown)
VH: QVQLVQSGAEVKKPGASVKVSCKASGYTFTSYYMHWVRQAPGQGLEWMGIINPSGGSTSYAQKFQGRVTMTRDTSTSTVYMELSSLRSEDTAVYYCARSPGVVTALFDYWGQGTLVTVSS
VL: DIQMTQSPSFMSASVGDRVTITCRASQDIGSYLAWYQQKPGKAPKLLIYAASTLQSGVPSRFSGSGSGTDFTLTINSLQPEDFATYYCQQSYSSPPTFGPGTTLEIK
notes: Isolated from a human phage library and screened as Fab; SPR was recorded for 'each candidate Fab'
B4: anti-TIM-3 antibody clone G7 (antibody, V domains shown)
VH: EVQLVQSGAEVKKPGASVKVSCKASGYTFTSYYMHWVRQAPGQGLEWMGIINPSGGSTSYAQKFQGRVTMTRDTSTSTVYMELSSLRSEDTAVYYCARDQYSSGWYYYGMDVWGQGTTVTVSS
VL: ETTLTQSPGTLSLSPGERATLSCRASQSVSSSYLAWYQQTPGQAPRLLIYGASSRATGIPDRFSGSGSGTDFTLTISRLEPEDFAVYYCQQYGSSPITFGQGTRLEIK
notes: as for B1
B5: anti-TIM-3 antibody clone G9 (antibody, V domains shown)
VH: B4 VH with E1Q, V5Q, Q100L, S103Y, W105F
VL: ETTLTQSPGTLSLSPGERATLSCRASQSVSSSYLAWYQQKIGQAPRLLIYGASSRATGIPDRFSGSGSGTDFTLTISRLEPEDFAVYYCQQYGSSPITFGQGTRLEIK
notes: as for B1
B6: anti-TIM-3 antibody clone G6 (antibody, V domains shown)
VH: QVQLQESGPGLVKPSGTLSLTCAVSGGSISSSNWWSWVRQPPGKGLEWIGEIYHSGSTNYNPSLKSRVTISVDKSKNQFSLKLSSVTAADTAVYYCARVVAVAGTVDYWGQGTLVTVSS
VL: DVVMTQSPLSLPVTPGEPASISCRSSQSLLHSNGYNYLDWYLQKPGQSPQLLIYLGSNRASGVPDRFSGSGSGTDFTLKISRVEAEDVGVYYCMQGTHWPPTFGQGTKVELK
notes: as for B1

Each binder was assayed against T1, Mouse Tim-3-Fc (mouse, UniProt Q8VIM0) (assay: ELISA on coated mouse TIM-3-Fc, absorbance 450-670 nm).
T1 construct: coupled to human Fc; ELISA coating antigen for the cross-reactivity test; also called mouse TIM-3 coupled to human Fc
Experimental: (§1) After a small-scale induction in HB2151 cells, Fab antibodies were screened by ELISA. […] After extensive washes in PBS Tween-20, Fab-containing supernatants from induction plates were transferred into the ELISA plates in the presence of 7% milk in PBS. After 90 minutes at room temperature under agitation and extensive washes, a goat anti-human Fab antibody coupled to HRP was added. One hour later, plates were washed and TMB substrate added. The reaction was stopped with 1M HCl and optical density measured at 450 nm with a reference at 670 nm. Antibodies giving an absorbance >0.1 were selected as positive.
B1: no binding.

Molecular target: T1, Mouse Tim-3-Fc
Experiment: as above
Remark: another data set of the same source
Experimental: as §1
B2: no binding. B3: no binding. B4: no binding. B5: no binding. B6: no binding.
